Here are results for 62 sequences from the supplement of paper PMC9112550, “Optimization of the antimicrobial peptide Bac7 by deep mutational scanning” (BMC Biology, 2022).

The test system of this data set is Escherichia coli TOP10. The data set is described as follows: shrunken log2 fold change of peptide-encoding DNA abundance (4.5 h post-induction vs induction); higher = less antimicrobial activity (less host growth inhibition). Particulars: time post-induction: 4.5 h; library: site-saturation at positions 5, 18, 19, 20.
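Also: peptides expressed intracellularly from a pBAD plasmid library in pooled LB shake-flask culture, induced with 0.3% L-arabinose, DNA abundance read by NGS, three biological replicates, DESeq2 with apeglm shrinkage.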

Consider RRIRVRPPRLPRPRPRPIKHPRP, for which the “shrunken log2 fold change” value was -0.505.
Turning to RRIRHRPPRLPRPRPRPVFYPRP, the “shrunken log2 fold change” value was -0.751.
The result for RRIRNRPPRLPRPRPRPKGMPRP reads -0.112; that for RRIRRRPPRLPRPRPRPADEPRP, 2.06.
As to RRIRFRPPRLPRPRPRPEITPRP, the “shrunken log2 fold change” value was -0.208.
As for RRIRGRPPRLPRPRPRPWGCPRP, the “shrunken log2 fold change” value was 0.702.
As to RRIRTRPPRLPRPRPRPNIVPRP, the “shrunken log2 fold change” value was -0.192.
Regarding RRIRWRPPRLPRPRPRPRISPRP, the “shrunken log2 fold change” value was found to be 0.305.
As for RRIRWRPPRLPRPRPRPCTQPRP, the “shrunken log2 fold change” value was -0.177.
Regarding RRIRFRPPRLPRPRPRPWPIPRP, the “shrunken log2 fold change” value was -0.0205.
Consider RRIRNRPPRLPRPRPRPHFEPRP, for which the “shrunken log2 fold change” value was determined as 0.066.
For the sequence RRIRIRPPRLPRPRPRPQIGPRP, the “shrunken log2 fold change” value was -0.451.
Take RRIRARPPRLPRPRPRPKWQPRP: the “shrunken log2 fold change” value is 0.0511.
Take RRIRGRPPRLPRPRPRPNVAPRP: the “shrunken log2 fold change” value worked out at 1.15.
On to RRIRIRPPRLPRPRPRPPYGPRP, for which the “shrunken log2 fold change” value was -0.202.
For RRIRTRPPRLPRPRPRPEHFPRP, the “shrunken log2 fold change” value is -0.115.
Consider RRIRRRPPRLPRPRPRPRVSPRP, for which the “shrunken log2 fold change” value was 0.335.
RRIRPRPPRLPRPRPRPNDSPRP: the “shrunken log2 fold change” value is -0.442.
To RRIRHRPPRLPRPRPRPCYCPRP belongs -0.617; to RRIRPRPPRLPRPRPRPLAAPRP, 0.767.
In the case of RRIRHRPPRLPRPRPRPFGRPRP, the “shrunken log2 fold change” value was -0.0135.
For RRIRFRPPRLPRPRPRPLYAPRP, the “shrunken log2 fold change” value is -0.119.
The result for RRIRNRPPRLPRPRPRPNLGPRP reads -0.00992; that for RRIRNRPPRLPRPRPRPQKCPRP, 0.0748; that for RRIRSRPPRLPRPRPRPGPWPRP, -0.0683.
As for RRIRARPPRLPRPRPRPTQYPRP, the “shrunken log2 fold change” value came to 0.116.
Take RRIRMRPPRLPRPRPRPCMVPRP: the “shrunken log2 fold change” value was -0.417.
As for RRIRLRPPRLPRPRPRPDGTPRP, the “shrunken log2 fold change” value worked out at 0.245.
For RRIRFRPPRLPRPRPRPPDLPRP, the “shrunken log2 fold change” value is -0.329.
RRIRMRPPRLPRPRPRPFTYPRP: the “shrunken log2 fold change” value was -0.0802.
As for RRIRQRPPRLPRPRPRPRVKPRP, the “shrunken log2 fold change” value was determined as 0.103.
The result for RRIRLRPPRLPRPRPRPKMCPRP reads -0.0794; that for RRIRSRPPRLPRPRPRPTLQPRP, 0.128.
For the sequence RRIRDRPPRLPRPRPRPLKGPRP, the “shrunken log2 fold change” value was -0.0274.
On to RRIRFRPPRLPRPRPRPVECPRP, for which the “shrunken log2 fold change” value is -0.17.
With RRIRDRPPRLPRPRPRPANWPRP, the “shrunken log2 fold change” value worked out at 0.239.
Take RRIRERPPRLPRPRPRPKDFPRP: the “shrunken log2 fold change” value was -0.00088.
Turning to RRIRQRPPRLPRPRPRPCCKPRP, the “shrunken log2 fold change” value is -0.00783.
The result for RRIRARPPRLPRPRPRPFWDPRP reads 0.00119; that for RRIRNRPPRLPRPRPRPTLHPRP, -0.0665; that for RRIRARPPRLPRPRPRPRICPRP, 0.29.
Regarding RRIRLRPPRLPRPRPRPMRHPRP, the “shrunken log2 fold change” value was found to be 0.188.
In the case of RRIRGRPPRLPRPRPRPCTWPRP, the “shrunken log2 fold change” value amounted to 0.228.
Turning to RRIRRRPPRLPRPRPRPNFLPRP, the “shrunken log2 fold change” value was found to be 0.0376.
As to RRIRDRPPRLPRPRPRPWHDPRP, the “shrunken log2 fold change” value came to 0.0315.
As for RRIRPRPPRLPRPRPRPRCDPRP, the “shrunken log2 fold change” value turned out to be 0.0398.
Consider RRIRPRPPRLPRPRPRPGHQPRP, for which the “shrunken log2 fold change” value was determined as 0.153.
Regarding RRIRIRPPRLPRPRPRPIRRPRP, the “shrunken log2 fold change” value came out at 0.00942.
On to RRIRWRPPRLPRPRPRPFYEPRP, for which the “shrunken log2 fold change” value was -0.579.
Regarding RRIRMRPPRLPRPRPRPMMCPRP, the “shrunken log2 fold change” value is -0.0746.
In the case of RRIRLRPPRLPRPRPRPWNEPRP, the “shrunken log2 fold change” value is -0.11.
The result for RRIRYRPPRLPRPRPRPLISPRP reads -0.596.
Regarding RRIRTRPPRLPRPRPRPWLLPRP, the “shrunken log2 fold change” value was -0.186.
As for RRIRCRPPRLPRPRPRPQNYPRP, the “shrunken log2 fold change” value is -0.485.
For RRIRRRPPRLPRPRPRPSMGPRP, the “shrunken log2 fold change” value is -0.0183.
As to RRIRSRPPRLPRPRPRPVQSPRP, the “shrunken log2 fold change” value was -0.0536.
To RRIRNRPPRLPRPRPRPYYSPRP belongs -0.541.
To RRIRSRPPRLPRPRPRPKAEPRP belongs 0.213; to RRIRSRPPRLPRPRPRPIGVPRP, 0.049.
As to RRIRIRPPRLPRPRPRPWTIPRP, the “shrunken log2 fold change” value was -0.0831.
Regarding RRIRDRPPRLPRPRPRPMILPRP, the “shrunken log2 fold change” value was -0.111.
To RRIRMRPPRLPRPRPRPPSVPRP belongs 0.777.
